According to PMC9881204, “Robust Covalent Aptamer Strategy Enables Sensitive Detection and Enhanced Inhibition of SARS-CoV-2 Proteins”:

Legend:
[1] = target: T1, SARS-CoV-2 spike RBD, wild type (SARS-CoV-2 (wild type), UniProt P0DTC2 319-541); assay: competition with ACE2-coated beads, flow cytometry; 10% FBS, 37 C; SPR: PBS + 5 mM MgCl2, 300 mM NaCl, 400 nM BLib, 2 ug/mL salmon sperm DNA, 25 C; flow cytometry in binding buffer, RT; neutralization in 10% FBS, 37 C; cross-linking in PBS pH 7.4 (SI: HEPES), RT; conditions: protein: commercial
[2] = target: T1, SARS-CoV-2 spike RBD, wild type; assay: flow cytometry, RBD-coated Ni beads; room temperature; apparent (covalent cross-link); SPR: PBS + 5 mM MgCl2, 300 mM NaCl, 400 nM BLib, 2 ug/mL salmon sperm DNA, 25 C; flow cytometry in binding buffer, RT; neutralization in 10% FBS, 37 C; cross-linking in PBS pH 7.4 (SI: HEPES), RT; conditions: protein: commercial
[3] = target: T1, SARS-CoV-2 spike RBD, wild type; assay: flow cytometry, RBD-coated Ni beads; room temperature; SPR: PBS + 5 mM MgCl2, 300 mM NaCl, 400 nM BLib, 2 ug/mL salmon sperm DNA, 25 C; flow cytometry in binding buffer, RT; neutralization in 10% FBS, 37 C; cross-linking in PBS pH 7.4 (SI: HEPES), RT; conditions: protein: commercial
[4] = target: T2, SARS-CoV-2 nucleocapsid protein (NP) (SARS-CoV-2, UniProt P0DTC9 1-419); assay: SPR; Kd value only in Fig 3a; about 10-fold weaker than antibodies; SPR: PBS + 5 mM MgCl2, 300 mM NaCl, 400 nM BLib, 2 ug/mL salmon sperm DNA, 25 C; flow cytometry in binding buffer, RT; neutralization in 10% FBS, 37 C; cross-linking in PBS pH 7.4 (SI: HEPES), RT; conditions: protein: commercial; tags: His; chain copies: 2; label: 3' biotin
[5] = target: T2, SARS-CoV-2 nucleocapsid protein (NP); assay: SPR; value only in Fig 3a; covalent; SPR: PBS + 5 mM MgCl2, 300 mM NaCl, 400 nM BLib, 2 ug/mL salmon sperm DNA, 25 C; flow cytometry in binding buffer, RT; neutralization in 10% FBS, 37 C; cross-linking in PBS pH 7.4 (SI: HEPES), RT; conditions: protein: commercial; tags: His; chain copies: 2; label: 3' biotin

B1: NHS-RApt (CRApt) (ssDNA)
DNA: ATTACCGATGGCTTGTTTGTAATGTAGGGTTCCGTCGGAT
modifications: 5' NH2 conjugated to disuccinimidyl suberate (NHS ester)
IC50 [1]: 0.42 nM | Kd [2]: 0.24 nM

B2: RApt (ssDNA)
DNA: B1 DNA
Kd [3]: 5.91 nM

B3: B15 (ssDNA)
DNA: GCTGGATGTTCATGCTGGCAAAATTCCTTAGGGGCACCGTTACTTTGACACATCCAGCTTTTTTTT
binding result [4]: binds

B4: B61 (ssDNA)
DNA: GCTGGATGTTGACCTTTACAGATCGGATTCTGTGGGGCGTTAAACTGACACATCCAGCTTTTTTTT
binding result [4]: binds

B5: NHS-B15 (ssDNA)
DNA: B3 DNA
modifications: 5' NH2 conjugated to disuccinimidyl suberate (NHS ester)
binding result [5]: binds

B6: NHS-B61 (ssDNA)
DNA: B4 DNA
modifications: 5' NH2 conjugated to disuccinimidyl suberate (NHS ester)
binding result [5]: binds
